This is an account of results in the DeepSol protein solubility set.

A short description of the data set: soluble on expression in E. coli; label from the status in PepcDB or PDB records.
As to “MATEAPTQSYSEQWYWDDRYKNESEPFDWYQKYSPLAPLINLYVPQRNQRVLVIGCGNSAFSEGMVDDGYEDVVSIDISSVVIDTMIKKYSDRPQLKYLKMDVRDMKAFEDASFDAVIDKGTLDSILCGSNSRQYSTQMLEEVWRVLKDKGVYILITYGAPIYRLRLFKESCSWTTKLHVIDKSLTDQPLDTPKWELTKPLPLDADGSSVESAIGKNPDVHYIYVCIKDESSKMEADAA”, the “soluble on expression in E. coli” value was “soluble”. Then “MTVFTPRTDCEVAVIGAGPFGLAAASALKGAGVDALTLGGAMSFWRDHMPRGMRLRSPWHATYIGHTKGPLSLDSYAKVLGISPREPLLLENFVDYGLWIQAQAVPDLDTRKVDRVEKANGGFRLALADGNAIKARRVVVATGLMNQQLIPAVFDGIPRELVSHASEHTGYEAFRGKRVAVIGRGQSACESAVLLKRNGAEVDLVCHGDIHWLGYRALSGKQGWSLRDFLSERLASPSRVGPFPISWLVEVPGVVHRFPEPARAGLNRRSLGAGATGWLKPDFDGIEIRAGSRIISASARDNGIELRFEKDFASFDHVVLGTGYRIDIAKLGLFAPAMLAAIARREGLPLLSAGFESSIPGLHFVGASAVGSFGPLMRFTAGTPFAARTVARFIQRAKDRRYTAALEHHHHHH”, with “not soluble”; and “MGSDKIHHHHHHMSQLLYDNGTHKCIAFTDLVEGEGIQANQFLIVNNGEGMLLDPGGNLTYKNLLAEMASYFLPAHLDYVFASHEDPDIVASANGWLLITDAKILIANEWTRFLPHFCSKGMTAGRVIGIPAQGMRVNLAGQELFVVPAHYMHSVGNFQVYDPVSKILFSGDLGANLVSGHDAAKVIEGAEAFAAHRAATSMDGFHRRYMGGQKVCRLWTNMARGMDIEWIVPQHGASFKGRETVLAFLDWFEGLESGPDLLTQKDFQFPIPENL”, with “not soluble”; and “MRRFTAFVLGLCLSLPVLAEQVQRFGDLDVHYNVFNSSFLQPNVASAVGLVRSKAQGVINVVPMEKGKPVEAAVTGSAKDLTGKVIPLEFRRVSEEGAIYNLAQFPISQRETLVFTIKVEAKGEPAQTFSFNKEIFPDE”, with “not soluble”. For the sequence “MCAHRPATAPDFLLSRSHGSIRTQGAVETFSDPGKAVEALRSGRVELVVGALAFRRDHACALTVPRSVIREEGPLEPHAYYRQGPGSIVNAQVEKLVPSLDKHHARVEAAINTIKSTSLKKVVLARAVDMTFSPAVDPRLIAARLIDLSRNRDGFIADLTPAGEDFAGAM”, the “soluble on expression in E. coli” value is given as “not soluble”. The value for “MDVPADSHIKYEDAIDYWTDVDATVDGVLGGYGEGTVVPTMDVLGSNNFLRKLKSRMLPQENNVKYAVDIGAGIGRVSKTMLHKHAAKIDLVEPVKPFIEQMHVELAELKDKGQIGQIYEVGMQDWTPDAGKYWLIWCQWCVGHLPDAELVAFLKRCIVGLQPNGTIVVKENNTPTDTDDFDETDSSVTRSDAKFRQIFEEAGLKLIASERQRGLPRELYPVRMYALKPMPN” was “soluble”. Regarding “MGSDKIHHHHHHMNLRRDALQILKETSRTFYIPISLLPPGLQEAVASAYLCMRAIDEIEDHPEIDNATKAKLLRSISLTLQAGVDGFAVEAFFTGFNGYENTLEEVTLRIREWLLLAPETIAPRIWDATAAMSDRMAYWSERNWKIYTESDLDRYTFGVAGAVGLLLSDLWTWYDGTQTNRTQAIGFGRGLQAVNILRNHTEDLRRGVDFFPEGWSAENMQEYARRNLALAEAYTKGLPTGPALDFCQIPLTLANGTLDALANGKEKLSRSDVFALIEQIISVNMKAS”, the “soluble on expression in E. coli” value is on record as “not soluble”.

With “GSHMNPLASLTTDKNDLYINWLKSLSFFQTNSSCAEALVKVIPHYHNKLIDFSQVLQLVFSASEKFPIQENQPLPEQLMFLSNLEKQTPFAKAVGSSIYKLVTGKNLSLDFASQILKEASILEH”, the “soluble on expression in E. coli” value is listed as “soluble”. As for “MSCDGGKPAPAKLGDEQLAELREIFRSFDQNKDGSLTELELGSLLRSLGLKPSQDQLDTLIQKADRNNNGLVEFSEFVALVEPDLVKCPYTDDQLKAIFRMFDRDGNGYITAAELAHSMAKLGHALTAEELTGMIKEADRDGDGCIDFQEFVQAITSAAFDNAWG”, the “soluble on expression in E. coli” value is “soluble”. In the case of “MGSDKIHHHHHHLKIITVSGPPSSGKTSVIIKTIEYLKKDQLEIGVVKFDSLSTYDDQMYKKLGVKVKVGLSGNLCPDHYYMTNIEDCVKWGVSEKLDMLISESAGLCNRCSPHIRDVLAICVIDNLSGINTPKKIGPMLRLADIVVITKGDIVSQAEREVFAFRAKQSSPRASIVFINGITGQGAYDLSLRLKEANDYESVIDKKLRFSMPAAVCSYCTGEIRIGERYQTGNIKKIKL”, the “soluble on expression in E. coli” value is listed as “not soluble”. Regarding “MNRMRRSTAFSEHVTFHTVMAKRGTGSKLDREVEIQFTNLQLIGTGSFGAVYKAVLRENDEPIAIKKIKVDDRFKSRELTIMHEMDHPNIIRLLYYYVMQQENCLNFVMEFMPKDLAYVHRQFAHNDKQMPAYSIKLYMFQLLRGIGFLHLHNIVHRDIKPKNLLVDESNGILKICDFGSAKRLEKNEPNITYICSRYYRAPELIFGSKNYDTSIDTWSVGTVVGELLHNSPIFLADSAVDILALQIKAFGTPSKEDMAKWNYEYVHIPYDTITGVGIQKFIGRKLSLSTLELLNSLMKMDPKLRIKPYEALTLPYFDDLRDPHYKLPSGAPIPPLFDWLEREYIANHEIIKDIFPRSEEGDKVECL”, the “soluble on expression in E. coli” value is listed as “not soluble”. With “LKRLFWPVLLVVLGFGTYEGAQRLLPYADRPIARINVQGDLSYISQQAVQQRIAPYVASSFFKIDLAAMRTELEQMPWIAHAEVRRVWPDQVVIRLEEQLPVARWGDEALLNNQGQAFTPRELSNYEHLPQLFGPQRAQQQVMQQYQVLSQMLRPMGFSIVRLELRERGSWFLTTGAGSAGPGIELLLGRDHLVEKMRRFIAIYDKTLKEQITNIARVDLRYSNGLAVGWREQAAATTDKPAVAKN”, the “soluble on expression in E. coli” value is “not soluble”.

In the case of “MGSDKIHHHHHHMIEFAAITSVISKYAPQASQLIIKQAQKNEAVINILHELKLNPTQISDDIDTVYIYALIRYGVFKHEAILNLFREKEIKGCFWDAYSSNTPFKFVENAKKLLNQNSELKMQLINAKINFLAEIEEFGEAFIAVAKQTKSSKYQPYPDWNLDVYSKEFKALIFEKTRLFCGRDFVFKAIQKFFTTQAKGYFSIVGDAGMGKSAIAAKYVLAYKFPCYFNIFAEGRNKPEKFLASIRQQLIKRYSLQNADNTDLRTLLQKASEELKGQKLVIVVDALDEVEQEGNGNLLDLPQNLPNGVYFLLTRRLYNQETKRLTLSPDTPVYELDLTQGDYTALSQEDVKEYIELYLNNDSDLKNWINERHISEDSFTQEIAVKSENNFIYLRYLLPGISEGKYNDLNLKGLPQGLQDYYTTHWNRMGMDKESNEKKVKILYILVERGEPISINMITEILDEEEYEVKSVLNEWVEYVTPKVNVDEHKTYYSIYHRSFLEFLKSQDKLGKGRKLFREVNKSMANYMLKEMA”, the “soluble on expression in E. coli” value is “not soluble”. For the sequence “MTGRESNRIKDAEKKRVLDSTARQRRARKALEALEQDNYHDDPHADLVMSKKLPKFQDSLKTGKEKKGKRKGAEYFLVKYRKNFQQLLEEDKDKQPNYESAAAPAPQKPLRHFCAVCGNFSLYSCTACGTRYCCVRCLQTHQDTRCLKWTALEHHHHHH”, the “soluble on expression in E. coli” value is recorded as “not soluble”. Take “MSLAFKPARVIFEQDALKYPMGEKLYRFFRDKGTDVSFAASHNRVSAIPGRTRSEKYFEAKRTLVVGVRRTTAFETCKPSAHFQLPLATSCPGKCEYCYLLTNMGKKPYVRIYVNIEEILSAARGYIEDRKPQVTVFEGAATSDPVPVEPYTGALARAVEFFGGQEYGRFRFVTKFTEVDTLLDVPHNGHTRFRFSINTPEVIRRFEHATPPLAERLAAAWKVAAAGYPLGFLVAPIIMYDGWRDSYRDLFKTAAAGLNGKVYDLTFEFITHRFTKRAKGTILEVFPSTRLDMDEEARAFKFGQFGYGKYVYPKELFSDAKIYFEGLAGEYFPGSKVEYFVEGHHHHHH”: the “soluble on expression in E. coli” value is listed as “not soluble”. Take “GPGSMVEACFLCLDSTEYMRNGDQYPTRMMAEQDAACLLANAKLQANAENTLGFLTTGGNACTVYETLTNNVDAIMTSIGSIPVNGKRCNFSSGLQIASLALSHRTNSRAEKRIVAFVGSPIGETAAELEALAKKLRKDDVAVDVVAFGVESNVELLQAFVKKVSKKENSRFLAVAARENLTDKLMSNAILLGEDLPEGAEGGGASMSGFGVDPNMDPELAMALRLSMEDEMQRQAAAAAAAASSAAPESAPASGSAATPAAPAAPAAAPVVDEDELSYENMSEEEMMRRAIALSLQDTAQGASDTASSPSVPQPATTSEACRNEEENEDDFAKGVEAALEEEEDEENRS”: the “soluble on expression in E. coli” value was “soluble”. As to “MTTKNKRVLQKCAYREEFKGDMERSTAATSKLPLEVELSRNSKGLIIILSSPSGTGKSSLAKALLKIDNNLRLSISATTRKPRLGEVEGINYYFKTGLEFEELVKQNKFLEYAKIYDNYYGTPKEYVEMLLNQGLDVLFDIDWQGARSIKKNATNVVTIFVLPPNIEVLEQRLRNRATDNEEAIKLRMQLAQNEISHANEYDYVVTNDDFDRTLKKIHAIIVAARDKAF”, the “soluble on expression in E. coli” value was “soluble”.

“MGSDKIHHHHHHMITHIRVASQQLEQPRFESPKELVSWMGAIQAQEYEMAKWAIGIRLRSSSLEKVNEALYKGDILRTHVMRPTWHFVAAEDIRWMLMLSSERIKAAVMSYAKGHFGKIEKTLFTRYLDQIGKILEGYKSLTKQEVTTELQKSGILPTIDHVNLFLTWGEVEGIVCSGIDKGKKTTYALLDERVPPTRELCREEALARLASRYFQSHSPAQLQDFVWWSGLTATECRLAINLIKTELITETFDSREYFIHQSWKGKNESKPVLRLLPAFDEYLISYKNRTDVLPLEHHPKAFNRFGTFYPVILYNGKIIGNWSRSIKKNTIQIEMDFFEKKPRIPVKLIQQAEAQIDAFYRGLSHRPALQCREK”: the “soluble on expression in E. coli” value is reported as “not soluble”.

For the sequence “MEEVIWEQYTVTLQKDSKRGFGIAVSGGRDNPHFENGETSIVISDVLPGGPADGLLQENDRVVMVNGTPMEDVLHSFAVQQLRKSGKIAAIVVKRPRKVQVAPLQGSPPLSHDDRGFEVIEEFDGRSFRSGYSERSRHSSHDMLSHSWEGNRERGRPHQRTQSRERERSRGRSLERGLDQEDYGRSRERSRGRSLERGLDRDFVSRDHSRGRSIDRDYDRDYERSYHEAYEPDYGGGYSPSYDRRAHPETRYERSRSREHLRSRSPSPESRSRHEHKGQHDPDRPIGVLLTKSKANEEYGLRLGSQIFIKEMTRTGLATKDGNLHEGDIILKINGTVTENMSLTDARKLIEKSRGKLQLVVLRDSKQTLINIPALNDSDSEVEDISEIESNRSFSPEERRQQYSDQDYHSSTEKLKERPSSREETSGRLSRMGATPTPFKSTGDITAAGVTEASREPRYQEEGPVPQPRTAPRVFLRPSPEDEAIYGPNTKMVRFKKGDSVGLRLAGGNDVGIFVAGIQEGTSAEQEGLQEGDQILKVNTQGFRGLVREDAVLYLLEIPKGETVTILAQSRADVYRDILACGRGDSFFIRSHFECEKETPQSLAFTRGEVFRVVDTLYDGKLGHWLAVRIGNELEKGLIPNKSRAEQMASVQNAQRENAGDRADFWRMRGQRSSGGVKKNLRKSREDLAAAVSVSTKFPAYEKVLLREAGFKRPVVLFGPIADIAMERSTELPDLFQTAKTEPKDAGSEKSSGVVRLNTVRQIIEQDKHALLDVTPKAVDLLNYTQWFPIVIFFNPDSRQGVKTIRQRLSPTSNKSSRKLFDQANKLKKTCSHLFTATINVNSANDGWFGSLKDSIQQQQNEAVWVSEGKMEGMDDDAEDRMSYLTAMGADYLSCDSRLISDFEDTDGEGGAYTDNELEEPAEEPLVSSITRSSEPVQHEENIRKSSPEPRAQMRRAASRDQLRELARPQPSSQSRPKARSQNREDSFDYSKSNLPATAGSEIPGGSTKGYPPPIAAKPAFGRPILKPSTPVPMPESEEVGESTEEQEDAPRSVLGRVKIFEKMDHKAKLQRMQELQEAQNARIEIAQKHPDIYAVPIKAPKPDAGLPPHMSSGPPEPQKAPSRLYQDTRGSYGSDPEEEEYRQQLAAHSKRGYYSQPSRYRDTEL”, the “soluble on expression in E. coli” value is “soluble”.
